Assay results from patent US20240108748.

Target: T1, {Pra}KTFKC plasmin-cleavable peptide, as Cholesterol-KTFKC-PEG2000 (not fully specified)
T1 chain: KTFKC

B1: Human plasmin (protein)
chain: KVYLSECKTGNGKNYRGTMSKTKNGITCQKWSSTSPHRPRFSPATHPSEGLEENYCRNPDNDPQGPWCYTTDPEKRYDYCDILECEEECMHCSGENYDGKISKTMSGLECQAWDSQSPHAHGYIPSKFPNKNLKKNYCRNPDRELRPWCFTTDPNKRWELCDIPRCTTPPPSSGPTYQCLKGTGENYRGNVAVTVSGHTCQHWSAQTPHTHNRTPENFPCKNLDENYCRNPDGKRAPWCHTTNSQVRWEYCKIPSCDSSPVSTEQLAPTAPPELTPVVQDCYHGDGQSYRGTSSTTTTGKKCQSWSSMTPHRHQKTPENYPNAGLTMNYCRNPDADKGPWCFTTDPSVRWEYCNLKKCSGTEASVVAPPPVVLLPDVETPSEEDCMFGNGKGYRGKRATTVTGTPCQDWAAQEPHRHSIFTPETNPRAGLEKNYCRNPDGDVGGPWCYTTNPRKLYDYCDVPQCAAPSFDCGKPQVEPKKCPGRVVGGCVAHPHSWPWQVSLRTRFGMHFCGGTLISPEWVLTAAHCLEKSPRPSSYKVILGAHQEVNLEPHVQEIEVSRLFLEPTRKDIALLKLSSPAVITDKVIPACLPSPNYVVADRTECFITGWGETQGTFGAGLLKEAQLPVIENKVCNRYEFLNGRVQSTELCAGHLAGGTDSCQGDSGGPLVCFEKDKYILQGVTSWGLGCARPNKPGVYVRVSRFVTWIEGVMRNN
Annexin V staining of immobilized PPNs after plasmin incubation (phosphatidylserine exposure after removal of the PEG cloak): PPNs incubated with ≥50 nM human plasmin had increased Annexin V staining
